The values that follow are results of earlier work, collected in PMC10276003.

In general, Kd refers to a measure of binding affinity in units of concentration.

This data set concerns the target GRB2 (Homo sapiens) (UniProt P62993).

Sequence of GRB2 (P62993 whole entry): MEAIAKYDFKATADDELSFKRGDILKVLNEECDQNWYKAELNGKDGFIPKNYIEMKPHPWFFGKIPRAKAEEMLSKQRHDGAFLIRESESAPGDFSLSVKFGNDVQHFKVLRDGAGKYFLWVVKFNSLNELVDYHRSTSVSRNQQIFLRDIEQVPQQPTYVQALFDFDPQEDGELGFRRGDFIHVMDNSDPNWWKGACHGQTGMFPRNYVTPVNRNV

GRB2 (from UniProt P62993): the Kd is 700 nM.
